Reference: publication PMC11365945

T1: Sh1 (Glycine soja, UniProt I1MNH4 1-230+=TTT+231-511, T232A;internal_change)
T1 sequence: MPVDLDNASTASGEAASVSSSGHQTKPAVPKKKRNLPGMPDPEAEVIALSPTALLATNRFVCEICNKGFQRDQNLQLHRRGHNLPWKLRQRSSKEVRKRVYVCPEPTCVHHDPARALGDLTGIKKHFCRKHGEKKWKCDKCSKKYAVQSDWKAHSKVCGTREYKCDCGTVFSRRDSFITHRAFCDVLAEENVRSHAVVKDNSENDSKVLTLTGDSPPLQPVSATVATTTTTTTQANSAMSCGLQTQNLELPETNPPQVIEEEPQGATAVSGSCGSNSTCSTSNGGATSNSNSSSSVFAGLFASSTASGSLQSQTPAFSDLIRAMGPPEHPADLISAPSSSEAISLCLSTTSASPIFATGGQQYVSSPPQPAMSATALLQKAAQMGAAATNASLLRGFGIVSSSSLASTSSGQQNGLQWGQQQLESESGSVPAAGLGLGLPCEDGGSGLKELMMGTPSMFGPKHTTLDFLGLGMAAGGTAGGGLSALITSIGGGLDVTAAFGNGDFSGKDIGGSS

B1: SHAT1-5 promoter S2-5 (dsDNA)
DNA 1: TCATGTTATTTTTAAATTATGAAACAAAATAATATATAAAATTCTTGCTTTATCACAAGT
DNA 2: ACTTGTGATAAAGCAAGAATTTTATATATTATTTTGTTTCATAATTTAAAAATAACATGA
B2: SHAT1-5 promoter S2-6 (dsDNA)
DNA 1: CCATTTTGAGGTATTTTTTATTTCTTCGTGTGAAATCTTGTACATTCTTTGGAGATGCTG
DNA 2: CAGCATCTCCAAAGAATGTACAAGATTTCACACGAAGAAATAAAAAATACCTCAAAATGG
B3: SHAT1-5 promoter S2-11 (dsDNA)
DNA 1: TTTTAAAATAAAAAAAAAAACAAATAGATATCATGTTATTTTTAAATTATGAAACAAAAT
DNA 2: ATTTTGTTTCATAATTTAAAAATAACATGATATCTATTTGTTTTTTTTTTTATTTTAAAA
B4: SHAT1-5 promoter S2-12 (dsDNA)
DNA 1: AATATATAAAATTCTTGCTTTATCACAAGTCCATTTTGAGGTATTTTTTATTTCTTCGTG
DNA 2: CACGAAGAAATAAAAAATACCTCAAAATGGACTTGTGATAAAGCAAGAATTTTATATATT

Target: T1, Sh1
Assay: EMSA

Binding result, binds:
B1, B2, B3, B4
